US20220089727A1 (CHANGCHUN GENESCIENCE PHARMACEUTICAL, published 2022)

T1: monkey CD47ECD-linker peptide-7his (monkey)
T1 construct: also called Monkey CD47-his
T1 chain: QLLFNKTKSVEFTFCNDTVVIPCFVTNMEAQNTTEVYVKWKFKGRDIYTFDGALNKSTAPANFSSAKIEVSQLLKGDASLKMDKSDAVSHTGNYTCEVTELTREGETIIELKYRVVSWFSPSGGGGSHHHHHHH


Assays:
[1] = biological target: T2, human CD47-linker peptide-hIgG1Fc (human); assay: competition ELISA: human CD47-hFc coated, blocked ligand human SIRP-his
T2 construct: also called Human CD47-hFc; human CD47-hFc

[2] = biological target: T3, CD47 on the surface of Jurkat cells (human, UniProt Q08722 19-323); assay: cell-based or functional assay
[3] = biological target: T4, human CD47 (analyte in the Biacore assay) (human, UniProt Q08722 19-139, limits assumed); assay: SPR (Biacore T200), antibody captured by anti-mouse Fc, human CD47 as analyte
T4 construct: also called human CD47 protein

[4] = biological target: T3, CD47 on the surface of Jurkat cells; assay: cell-based or functional assay; remark: listed apart in the source
[5] = biological target: T5, human CD47ECD-linker peptide-7his (human, UniProt Q08722 19-139); assay: ELISA, hCD47-his coated at 1 µg/ml, cell culture supernatant
T5 construct: also called hCD47-his; human CD47-his

[6] = biological target: T2, human CD47-linker peptide-hIgG1Fc; assay: competition ELISA: CD47-hFc coated, antibody titrated against human SIRP-his (competitor), anti-His detection
[7] = biological target: T3, CD47 on the surface of Jurkat cells; assay: flow cytometry on Jurkat cells, hybridoma supernatant, anti-mouse IgG Fc FITC
[8] = biological target: T1, monkey CD47ECD-linker peptide-7his; assay: ELISA, monkey CD47-his coated at 1 µg/ml, cell culture supernatant

Row | Binder | IC50 (read off the curve) [1] | Apoptotic rate (%) [2] | Kd [3] | koff [3] | kon [3] | phagocytic index [4] | OD450 [5] | EC50 [6] | MFI [7] | OD450 [8]
1 | 059-1.20.1 (antibody, mouse IgG1, V domains shown, also called 059-1.20.1 purified antibody) VH: EVQLQQSGPELVKPGASVNMSCKASGYTFTNYFLHWVKQKPGQGLEWIGYINPYNDGTNYNENFKGKATLTSDKSSSTAYMELSSLTSEDSAVYYCAKGGWFSMDYWGQGTSVTVSS VL: DVVMTQTPLSLPVSLGDQASISCRSSQSLVHSNGKTYLQWYLQKPGQSPKLLIYKVSNRFSGVPDRFSGSGSGTDFTLKISRVEAEDLGVYFCSQSTHVYTFGGGTKLEIK | ~1 µg/mL | 33% | 25.3 nM | 0.00548 s⁻¹ | 217000 M⁻¹ s⁻¹ | 43 Jurkat cells phagocytized per 100 macrophages | 4 OD450 | 1190 nM | 15300 MFI | 4 OD450
2 | 059-1.82.1 (antibody, mouse IgG3, V domains shown) VH: EVQLQQSGPELVKPGASVKMSCKASGYTFTNYVMHWVKQKPGQGLEWIGYINPYNDGTNYNEKFKGKATLTSDKSSSTAYMELSSLTSEDSAVYYCAKGGWFSMDYWGQGTSVTVSS VL: DVVMTQTPLSLPVSLGDQASISCRSSQSLVHSNGKTYLQWYLQKPGQSPKLLIYKVSNRFSGVPDRFSGSGSGTDFTLKISRVEAEDLGVYFCSQSTHVYTFGGGTKLEIK | ~1 µg/mL | 24% | 14.2 nM | 0.00364 s⁻¹ | 256000 M⁻¹ s⁻¹ | 74 Jurkat cells phagocytized per 100 macrophages | 4 OD450 | 1030 nM | 9550 MFI | 3.9 OD450
3 | 059-1.51.2 (antibody, mouse IgM, V domains shown, Mouse hybridoma antibody; light chain type kappa) VH: EVQLQQSGPELVKPGASVKMSCKASGYTFTNYVMHWMKQKPGQGLEWIGYINPYNDDTKYNEKFKDRATLTSDKSSSTAYMELSSLTSEDSAVYYCAKGGYYSMDYWGQGTSVTVSS VL: DVVMTQTPLSLPVSLGDQASISCRSSQSLVHSKGNTYLHWYLQKPGQSPKLLIYKVSNRFSGVPDRFSGSGSGTDFTLKISRVEAEDLGVYFCSQSTHVPFTFGSGTKLEIK |  |  | 27.3 nM | 0.0101 s⁻¹ | 370000 M⁻¹ s⁻¹ |  | 0.771 OD450 |  | 144 MFI | 0.634 OD450
4 | 059-1.43.1 (antibody, mouse IgG1, V domains shown, also called 059-1.43.1 purified antibody) VH: QVQLQQSGAELVRPGASVTLSCKASGYTFTDYEMHWVKQTPVHGLEWIGAIDPETGGTAYNQKFKGKATLTADKSSSTAYMELRSLTSEDSAVYYCTRGTPYAMDYWGQGTSVTVSS VL: DVVMTQTPLSLPVSLGDQASISCRSSQSLVHSNGNTYLHWYLQKPGQSPKLLIYKVSNRFSGVPDRFSGSGSGTDFTLKISRVEAEDLGVYFCSQSTHVPWTFGGGTKLEIK | ~0.9 µg/mL | 37% | 28.3 nM | 0.00666 s⁻¹ | 236000 M⁻¹ s⁻¹ | 79 Jurkat cells phagocytized per 100 macrophages | 4 OD450 | 850 nM | 18500 MFI | 4 OD450

More lines, in order of falling Kd [3], values ahead:

Row | IC50 (read off the curve) [1] | Apoptotic rate (%) [2] | Kd [3] | koff [3] | kon [3] | phagocytic index [4] | OD450 [5] | EC50 [6] | MFI [7] | OD450 [8] | Binder
5 |  |  | 44 nM | 0.0069 s⁻¹ | 157000 M⁻¹ s⁻¹ |  | 0.81 OD450 |  | 216 MFI | 0.617 OD450 | 059-1.100.5 (antibody, mouse IgM, V domains shown, Mouse hybridoma antibody; light chain type kappa; also called 059-1.100.5 purified antibody) VH: QVQLQQSGAELVRPGASVTLSCKASGYTFTDYEMHWVKQTPVHGLEWIGAIDPETGGTAYNQNFKGKATLTADKSSSTAYMELRSLTSEDSAVYYCTRGTPYAMDYWGQGTSVTVSS VL: DVVMTQTPLSLPVSLGDQASISCRSSQSLVHSNGNTYLHWYLQKPGQSPKLLIYKVSNRFSGVPDRFSGSGSGTDFTLKISRVEAEDLGVYFCSQSTHVPWTFGGGTKLEIK
6 | ~1 µg/mL | 48% | 30.1 nM | 0.0128 s⁻¹ | 424000 M⁻¹ s⁻¹ | 70 Jurkat cells phagocytized per 100 macrophages | 4 OD450 | 1030 nM | 9950 MFI | 4 OD450 | 059-1.30.1 (antibody, mouse IgG1, V domains shown, also called 059-1.30.1 purified antibody) VH: EVQLQQSGPELVKPGASVRMSCKASGYTFTNYVMHWVKQKPGQGLEWIGYINPYNDGTKYSEKFKGKATLTSDKSSITAYMELSSLTSEDSAVYYCAKGGLFTFDYWGQGTTLTVSS VL: DVVMTQTPLSLPVSLGDQASISCRSSQSLVHSKGNTYLHWYLQKPGQSPKLLIYRVSNRFSGVPDRFSGSGSGTDFTLKISRVEAEDLGVYFCSQSTHVPFTFGSGTKLEIK
7 | ~1 µg/mL | 8% | 27.5 nM | 0.00364 s⁻¹ | 132000 M⁻¹ s⁻¹ | 20 Jurkat cells phagocytized per 100 macrophages |  |  |  |  | B6H12 (commercialized CD47 antibody, purchased from Abcam, catalog No. ab3283) (antibody) EVQLVESGGDLVKPGGSLKLSCAASGFTFSGYGMSWVRQTPDKRLEWVATITSGGTYTYYPDSVKGRFTISRDNAKNTLYLQIDSLKSEDTAIYFCARSLAGNAMDYWGQGTSVTVSSGGGGSGGGGSGGGGSDIVMTQSPATLSVTPGDRVSLSCRASQTISDYLHWYQQKSHESPRLLIKFASQSISGIPSRFSGSGSGSDFTLSINSVEPEDVGVYYCQNGHGFPRTFGGGTKLEIK
8 |  |  | 15.5 nM | 0.00402 s⁻¹ | 260000 M⁻¹ s⁻¹ |  | 3.67 OD450 | 2340 nM | 6630 MFI | 4 OD450 | 059-1.11.1 (antibody, mouse IgM, V domains shown, Mouse hybridoma antibody; the subclass paragraph gives the light chain type as kappa; also called 059-1.11.1 purified antibody) VH: QVQLQQSGAELVRPGASVTLSCKASGYTFTDYEMHWVKQTPVHGLEWIGAIDPETGGTAYNQKFKGKATLTADKSSSTAYMELRSLTSEDSAVYYCTRGTPYAMDYWGQGTSVTVSS VL: DVVMTQTPLSLPVSLGDQASISCRSSQSLVHSNGNTYLHWYLQKPGQSPKLLIYKVSNRFSGVPERFSGSGSGTDFTLKISRVEAEDLGVYFCSQSTHVPWTFGGGTKLEIK
